Results published in the supplement of paper PMC9112550, “Optimization of the antimicrobial peptide Bac7 by deep mutational scanning” (BMC Biology, 2022).

What follows are sequences tested on Escherichia coli TOP10 (assay: shrunken log2 fold change of peptide-encoding DNA abundance (4.5 h post-induction vs induction); higher = less antimicrobial activity (less host growth inhibition)). Conditions: time post-induction: 4.5 h; library: site-saturation at positions 5, 18, 19, 20.
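Also: peptides expressed intracellularly from a pBAD plasmid library in pooled LB shake-flask culture, induced with 0.3% L-arabinose, DNA abundance read by NGS, three biological replicates, DESeq2 with apeglm shrinkage.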

Row | Sequence | shrunken log2 fold change
1 | RRIRTRPPRLPRPRPRPVEWPRP | 0.168
2 | RRIRERPPRLPRPRPRPSGSPRP | 0.0459
3 | RRIRDRPPRLPRPRPRPTLGPRP | 1.08
4 | RRIRVRPPRLPRPRPRPFHFPRP | -0.238
5 | RRIRHRPPRLPRPRPRPFSSPRP | 0.107
6 | RRIRLRPPRLPRPRPRPPSPPRP | 0.58
7 | RRIRRRPPRLPRPRPRPWSDPRP | -0.107
8 | RRIRQRPPRLPRPRPRPACGPRP | 0.217
9 | RRIRQRPPRLPRPRPRPIYAPRP | -0.222
10 | RRIRMRPPRLPRPRPRPVEEPRP | 0.292
11 | RRIRSRPPRLPRPRPRPNNGPRP | -0.035
12 | RRIRDRPPRLPRPRPRPQNIPRP | -0.126
13 | RRIRIRPPRLPRPRPRPSVRPRP | -0.238
14 | RRIRVRPPRLPRPRPRPHWFPRP | -0.11
15 | RRIRIRPPRLPRPRPRPRWNPRP | -0.249
16 | RRIRYRPPRLPRPRPRPYYDPRP | -0.15
17 | RRIRCRPPRLPRPRPRPAHSPRP | -0.129
18 | RRIRPRPPRLPRPRPRPQVPPRP | 0.0319
19 | RRIRYRPPRLPRPRPRPRVQPRP | -0.617
20 | RRIRSRPPRLPRPRPRPNANPRP | 0.0564
21 | RRIRVRPPRLPRPRPRPMQIPRP | -0.0185
22 | RRIRFRPPRLPRPRPRPDLCPRP | -0.0489
23 | RRIRFRPPRLPRPRPRPCAIPRP | -0.0259
24 | RRIRDRPPRLPRPRPRPSVPPRP | -0.329
25 | RRIRNRPPRLPRPRPRPVSSPRP | -0.00623

Row | Sequence | shrunken log2 fold change
26 | RRIRARPPRLPRPRPRPMHPPRP | 0.362
27 | RRIRVRPPRLPRPRPRPKESPRP | -0.0206
28 | RRIRTRPPRLPRPRPRPDVAPRP | -0.0174
29 | RRIRTRPPRLPRPRPRPIQTPRP | -0.0398
30 | RRIRNRPPRLPRPRPRPGTKPRP | 0.0372
31 | RRIRGRPPRLPRPRPRPCHQPRP | -0.0488
32 | RRIRARPPRLPRPRPRPINWPRP | 0.139
33 | RRIRCRPPRLPRPRPRPDAEPRP | 1.03
34 | RRIRCRPPRLPRPRPRPFVKPRP | -0.4
35 | RRIRRRPPRLPRPRPRPNLPPRP | 0.0123
36 | RRIRSRPPRLPRPRPRPAKPPRP | -0.146
37 | RRIRWRPPRLPRPRPRPPFRPRP | 0.632
38 | RRIRQRPPRLPRPRPRPHSEPRP | -0.0749
39 | RRIRCRPPRLPRPRPRPIKKPRP | -0.0497
40 | RRIRDRPPRLPRPRPRPASKPRP | -0.0758
41 | RRIRTRPPRLPRPRPRPDPMPRP | -0.0555
42 | RRIRCRPPRLPRPRPRPQLLPRP | -0.23
43 | RRIRFRPPRLPRPRPRPCYLPRP | -0.891
44 | RRIRRRPPRLPRPRPRPLSDPRP | 0.144
45 | RRIRPRPPRLPRPRPRPGWFPRP | 0.238
46 | RRIRCRPPRLPRPRPRPVSKPRP | -0.109
47 | RRIRPRPPRLPRPRPRPGGPPRP | 0.41
48 | RRIRSRPPRLPRPRPRPFCQPRP | -0.0847
49 | RRIRIRPPRLPRPRPRPELKPRP | 0.224
50 | RRIRPRPPRLPRPRPRPDPAPRP | 0.326

Row | Sequence | shrunken log2 fold change
51 | RRIRMRPPRLPRPRPRPWAHPRP | -0.091
52 | RRIRKRPPRLPRPRPRPCMRPRP | 0.0327
53 | RRIRPRPPRLPRPRPRPKCIPRP | -1.04
54 | RRIRPRPPRLPRPRPRPMVAPRP | 0.208
55 | RRIRHRPPRLPRPRPRPAYMPRP | 0.0834
56 | RRIRARPPRLPRPRPRPCHPPRP | 0.194
57 | RRIRDRPPRLPRPRPRPTVDPRP | 0.195
58 | RRIRIRPPRLPRPRPRPWTVPRP | -0.15
59 | RRIRNRPPRLPRPRPRPDHFPRP | -0.0062
60 | RRIRCRPPRLPRPRPRPGYKPRP | -0.0902
61 | RRIRWRPPRLPRPRPRPLFFPRP | -0.00386
62 | RRIRLRPPRLPRPRPRPNTWPRP | -0.245
63 | RRIRCRPPRLPRPRPRPMQWPRP | 0.226
64 | RRIRCRPPRLPRPRPRPCWRPRP | 0.252
65 | RRIRYRPPRLPRPRPRPTEPPRP | -0.131
66 | RRIRMRPPRLPRPRPRPGALPRP | 0.954
67 | RRIRQRPPRLPRPRPRPFEHPRP | -0.00133
68 | RRIRYRPPRLPRPRPRPMTQPRP | -0.0104
69 | RRIRGRPPRLPRPRPRPMWEPRP | 1.3
70 | RRIRQRPPRLPRPRPRPPSRPRP | 0.138
71 | RRIRMRPPRLPRPRPRPCWTPRP | -0.218
72 | RRIRMRPPRLPRPRPRPETEPRP | 3.69
73 | RRIRNRPPRLPRPRPRPYRHPRP | -0.01
74 | RRIRIRPPRLPRPRPRPVEGPRP | -0.308
75 | RRIRCRPPRLPRPRPRPGYYPRP | -0.281

Row | Sequence | shrunken log2 fold change
76 | RRIRQRPPRLPRPRPRPCMRPRP | 0.0607
77 | RRIRSRPPRLPRPRPRPLVTPRP | 0.0214
78 | RRIRFRPPRLPRPRPRPQWTPRP | -0.075
79 | RRIRWRPPRLPRPRPRPHNMPRP | -0.623
80 | RRIRPRPPRLPRPRPRPNRGPRP | 0.0424
81 | RRIRLRPPRLPRPRPRPATMPRP | -0.366
82 | RRIRARPPRLPRPRPRPRSRPRP | 0.757
83 | RRIRGRPPRLPRPRPRPSYTPRP | 0.307
84 | RRIRDRPPRLPRPRPRPLRSPRP | 0.294
85 | RRIRVRPPRLPRPRPRPCPQPRP | -0.0828
86 | RRIRKRPPRLPRPRPRPEWSPRP | 0.0885
87 | RRIRYRPPRLPRPRPRPGGEPRP | 0.173
88 | RRIRCRPPRLPRPRPRPWPYPRP | -0.115
89 | RRIRDRPPRLPRPRPRPNVKPRP | -0.631
90 | RRIRPRPPRLPRPRPRPEYIPRP | -0.0411
91 | RRIRRRPPRLPRPRPRPQAIPRP | -0.0149
92 | RRIRARPPRLPRPRPRPGYKPRP | -0.268
93 | RRIRIRPPRLPRPRPRPPKMPRP | -0.0476
94 | RRIRCRPPRLPRPRPRPAYMPRP | 0.119
95 | RRIRLRPPRLPRPRPRPHLHPRP | -0.424
96 | RRIRTRPPRLPRPRPRPATAPRP | 0.362
97 | RRIRCRPPRLPRPRPRPRFRPRP | 0.201
98 | RRIRARPPRLPRPRPRPVVDPRP | 0.399
99 | RRIRMRPPRLPRPRPRPGCIPRP | 0.0871
100 | RRIRWRPPRLPRPRPRPPFWPRP | 0.836

Row | Sequence | shrunken log2 fold change
101 | RRIRMRPPRLPRPRPRPRPFPRP | 0.647
102 | RRIRERPPRLPRPRPRPITVPRP | 0.0995
103 | RRIRNRPPRLPRPRPRPKMDPRP | 0.0178
104 | RRIRKRPPRLPRPRPRPACVPRP | 0.735
105 | RRIRKRPPRLPRPRPRPGDWPRP | 0.485
106 | RRIRLRPPRLPRPRPRPRVWPRP | 0.655
107 | RRIRMRPPRLPRPRPRPMQPPRP | -0.000921
108 | RRIRNRPPRLPRPRPRPFLLPRP | -0.295
109 | RRIRFRPPRLPRPRPRPKCQPRP | 0.274
110 | RRIRKRPPRLPRPRPRPTRNPRP | 0.547
111 | RRIRQRPPRLPRPRPRPTKNPRP | 0.0334
112 | RRIRCRPPRLPRPRPRPEYWPRP | -0.0559
113 | RRIRRRPPRLPRPRPRPHWDPRP | -0.0203
114 | RRIRSRPPRLPRPRPRPLWGPRP | -0.00343
115 | RRIRRRPPRLPRPRPRPEVNPRP | -0.0845
116 | RRIRPRPPRLPRPRPRPIDVPRP | -0.148
117 | RRIRWRPPRLPRPRPRPMWTPRP | 0.171
118 | RRIRFRPPRLPRPRPRPWAEPRP | 0.212
119 | RRIRARPPRLPRPRPRPLKQPRP | 0.469
120 | RRIRARPPRLPRPRPRPASCPRP | 0.295
121 | RRIRVRPPRLPRPRPRPLCIPRP | -0.499
122 | RRIRVRPPRLPRPRPRPYIGPRP | -0.661
123 | RRIRNRPPRLPRPRPRPRSPPRP | 2
124 | RRIRYRPPRLPRPRPRPVFSPRP | -0.303
125 | RRIRSRPPRLPRPRPRPPVFPRP | 0.368

Row | Sequence | shrunken log2 fold change
126 | RRIRTRPPRLPRPRPRPYSCPRP | -0.0718
127 | RRIRYRPPRLPRPRPRPQRYPRP | -0.771
128 | RRIRKRPPRLPRPRPRPHKHPRP | -0.119
129 | RRIRARPPRLPRPRPRPACHPRP | 0.371
130 | RRIRKRPPRLPRPRPRPWWVPRP | 0.404
131 | RRIRCRPPRLPRPRPRPQQPPRP | 0.345
132 | RRIRCRPPRLPRPRPRPTVGPRP | 0.224
133 | RRIRKRPPRLPRPRPRPPQGPRP | 0.469
134 | RRIRPRPPRLPRPRPRPLSDPRP | -0.0446
135 | RRIRLRPPRLPRPRPRPAPSPRP | 0.163
136 | RRIRCRPPRLPRPRPRPLPEPRP | 0.397
137 | RRIRSRPPRLPRPRPRPDFEPRP | -0.0501
138 | RRIRERPPRLPRPRPRPERMPRP | -0.0648
139 | RRIRVRPPRLPRPRPRPCWSPRP | 0.0821
140 | RRIRLRPPRLPRPRPRPHYDPRP | -0.0502
141 | RRIRKRPPRLPRPRPRPKNDPRP | 0.186
142 | RRIRRRPPRLPRPRPRPPRRPRP | 1.34
143 | RRIRFRPPRLPRPRPRPFFDPRP | -0.065
144 | RRIRIRPPRLPRPRPRPRWCPRP | -0.11
145 | RRIRDRPPRLPRPRPRPPQGPRP | 0.289
146 | RRIRYRPPRLPRPRPRPTIEPRP | -0.391
147 | RRIRYRPPRLPRPRPRPASPPRP | -0.161
148 | RRIRTRPPRLPRPRPRPPTNPRP | 0.156
149 | RRIRKRPPRLPRPRPRPDLWPRP | 0.123
150 | RRIRFRPPRLPRPRPRPMGVPRP | -0.457
